# Patent US20210388087A1 (Chugai, published 2021)
# Target: T1, Human CD137 ECD (human)
# T1 construct: also called 4-1BB
# Assay: SPR, vs parent H183/L072
# T1 sequence (chain, as listed by the source limits assumed): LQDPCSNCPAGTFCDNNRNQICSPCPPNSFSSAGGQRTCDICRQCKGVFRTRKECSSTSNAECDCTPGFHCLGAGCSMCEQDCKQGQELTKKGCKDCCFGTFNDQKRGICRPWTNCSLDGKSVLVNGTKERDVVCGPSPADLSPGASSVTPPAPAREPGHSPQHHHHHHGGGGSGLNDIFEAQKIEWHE
row,Binder,fold change of affinity [fold]
1,"dBBDu183H V100cQ / dBBDu072L (antibody, name in Kabat numbering, V domains shown, as m1, one VH change) VH: QVQLVESGGGLVQPGRSLRLSCAASGFTFSNAWMHWVRQAPGKGLEWVAQIKDKGNAYAAYYAPSVKGRFTISRDDSKNSIYLQMNSLKTEDTAVYYCHYVHYASASTQLPAFGVDAWGQGTTVTVSS VL: DIVMTQSPLSLPVTPGEPASISCQASQELVHMNRNTYLHWYQQKPGQAPRLLIYKVSNRFPGVPDRFSGSGSGTDFTLKISRVEAEDVGVYYCAQGTSVPFTFGQGTKLEIK",1.4
2,"dBBDu183H Y94Q / dBBDu072L (antibody, name in Kabat numbering, V domains shown, as m1, one VH change) VH: QVQLVESGGGLVQPGRSLRLSCAASGFTFSNAWMHWVRQAPGKGLEWVAQIKDKGNAYAAYYAPSVKGRFTISRDDSKNSIYLQMNSLKTEDTAVYYCHQVHYASASTVLPAFGVDAWGQGTTVTVSS VL: DIVMTQSPLSLPVTPGEPASISCQASQELVHMNRNTYLHWYQQKPGQAPRLLIYKVSNRFPGVPDRFSGSGSGTDFTLKISRVEAEDVGVYYCAQGTSVPFTFGQGTKLEIK",0.3
3,"dBBDu183H Y94D / dBBDu072L (antibody, name in Kabat numbering, V domains shown, as m1, one VH change) VH: QVQLVESGGGLVQPGRSLRLSCAASGFTFSNAWMHWVRQAPGKGLEWVAQIKDKGNAYAAYYAPSVKGRFTISRDDSKNSIYLQMNSLKTEDTAVYYCHDVHYASASTVLPAFGVDAWGQGTTVTVSS VL: DIVMTQSPLSLPVTPGEPASISCQASQELVHMNRNTYLHWYQQKPGQAPRLLIYKVSNRFPGVPDRFSGSGSGTDFTLKISRVEAEDVGVYYCAQGTSVPFTFGQGTKLEIK",0.2
4,"dBBDu183H V100cR / dBBDu072L (antibody, name in Kabat numbering, V domains shown, as m1, one VH change) VH: QVQLVESGGGLVQPGRSLRLSCAASGFTFSNAWMHWVRQAPGKGLEWVAQIKDKGNAYAAYYAPSVKGRFTISRDDSKNSIYLQMNSLKTEDTAVYYCHYVHYASASTRLPAFGVDAWGQGTTVTVSS VL: DIVMTQSPLSLPVTPGEPASISCQASQELVHMNRNTYLHWYQQKPGQAPRLLIYKVSNRFPGVPDRFSGSGSGTDFTLKISRVEAEDVGVYYCAQGTSVPFTFGQGTKLEIK",0.7
5,"dBBDu183H Y94T / dBBDu072L (antibody, name in Kabat numbering, V domains shown, as m1, one VH change) VH: QVQLVESGGGLVQPGRSLRLSCAASGFTFSNAWMHWVRQAPGKGLEWVAQIKDKGNAYAAYYAPSVKGRFTISRDDSKNSIYLQMNSLKTEDTAVYYCHTVHYASASTVLPAFGVDAWGQGTTVTVSS VL: DIVMTQSPLSLPVTPGEPASISCQASQELVHMNRNTYLHWYQQKPGQAPRLLIYKVSNRFPGVPDRFSGSGSGTDFTLKISRVEAEDVGVYYCAQGTSVPFTFGQGTKLEIK",0.6
6,"dBBDu183H V100cT / dBBDu072L (antibody, name in Kabat numbering, V domains shown, as m1, one VH change) VH: QVQLVESGGGLVQPGRSLRLSCAASGFTFSNAWMHWVRQAPGKGLEWVAQIKDKGNAYAAYYAPSVKGRFTISRDDSKNSIYLQMNSLKTEDTAVYYCHYVHYASASTTLPAFGVDAWGQGTTVTVSS VL: DIVMTQSPLSLPVTPGEPASISCQASQELVHMNRNTYLHWYQQKPGQAPRLLIYKVSNRFPGVPDRFSGSGSGTDFTLKISRVEAEDVGVYYCAQGTSVPFTFGQGTKLEIK",0.5
7,"dBBDu183H Y94N / dBBDu072L (antibody, name in Kabat numbering, V domains shown, as m1, one VH change) VH: QVQLVESGGGLVQPGRSLRLSCAASGFTFSNAWMHWVRQAPGKGLEWVAQIKDKGNAYAAYYAPSVKGRFTISRDDSKNSIYLQMNSLKTEDTAVYYCHNVHYASASTVLPAFGVDAWGQGTTVTVSS VL: DIVMTQSPLSLPVTPGEPASISCQASQELVHMNRNTYLHWYQQKPGQAPRLLIYKVSNRFPGVPDRFSGSGSGTDFTLKISRVEAEDVGVYYCAQGTSVPFTFGQGTKLEIK",0.1
8,"dBBDu183H Y94F / dBBDu072L (antibody, name in Kabat numbering, V domains shown, as m1, one VH change) VH: QVQLVESGGGLVQPGRSLRLSCAASGFTFSNAWMHWVRQAPGKGLEWVAQIKDKGNAYAAYYAPSVKGRFTISRDDSKNSIYLQMNSLKTEDTAVYYCHFVHYASASTVLPAFGVDAWGQGTTVTVSS VL: DIVMTQSPLSLPVTPGEPASISCQASQELVHMNRNTYLHWYQQKPGQAPRLLIYKVSNRFPGVPDRFSGSGSGTDFTLKISRVEAEDVGVYYCAQGTSVPFTFGQGTKLEIK",1.8
9,"dBBDu183H V100cY / dBBDu072L (antibody, name in Kabat numbering, V domains shown, as m1, one VH change) VH: QVQLVESGGGLVQPGRSLRLSCAASGFTFSNAWMHWVRQAPGKGLEWVAQIKDKGNAYAAYYAPSVKGRFTISRDDSKNSIYLQMNSLKTEDTAVYYCHYVHYASASTYLPAFGVDAWGQGTTVTVSS VL: DIVMTQSPLSLPVTPGEPASISCQASQELVHMNRNTYLHWYQQKPGQAPRLLIYKVSNRFPGVPDRFSGSGSGTDFTLKISRVEAEDVGVYYCAQGTSVPFTFGQGTKLEIK",0.6

# The remaining lines, values ahead:
row,fold change of affinity [fold],Binder
1,0.5,"dBBDu183H V100cK / dBBDu072L (antibody, name in Kabat numbering, V domains shown, as m1, one VH change) VH: QVQLVESGGGLVQPGRSLRLSCAASGFTFSNAWMHWVRQAPGKGLEWVAQIKDKGNAYAAYYAPSVKGRFTISRDDSKNSIYLQMNSLKTEDTAVYYCHYVHYASASTKLPAFGVDAWGQGTTVTVSS VL: DIVMTQSPLSLPVTPGEPASISCQASQELVHMNRNTYLHWYQQKPGQAPRLLIYKVSNRFPGVPDRFSGSGSGTDFTLKISRVEAEDVGVYYCAQGTSVPFTFGQGTKLEIK"
2,1.4,"dBBDu183H Y94S / dBBDu072L (antibody, name in Kabat numbering, V domains shown, as m1, one VH change) VH: QVQLVESGGGLVQPGRSLRLSCAASGFTFSNAWMHWVRQAPGKGLEWVAQIKDKGNAYAAYYAPSVKGRFTISRDDSKNSIYLQMNSLKTEDTAVYYCHSVHYASASTVLPAFGVDAWGQGTTVTVSS VL: DIVMTQSPLSLPVTPGEPASISCQASQELVHMNRNTYLHWYQQKPGQAPRLLIYKVSNRFPGVPDRFSGSGSGTDFTLKISRVEAEDVGVYYCAQGTSVPFTFGQGTKLEIK"
3,0.5,"dBBDu183H V100cS / dBBDu072L (antibody, name in Kabat numbering, V domains shown, as m1, one VH change) VH: QVQLVESGGGLVQPGRSLRLSCAASGFTFSNAWMHWVRQAPGKGLEWVAQIKDKGNAYAAYYAPSVKGRFTISRDDSKNSIYLQMNSLKTEDTAVYYCHYVHYASASTSLPAFGVDAWGQGTTVTVSS VL: DIVMTQSPLSLPVTPGEPASISCQASQELVHMNRNTYLHWYQQKPGQAPRLLIYKVSNRFPGVPDRFSGSGSGTDFTLKISRVEAEDVGVYYCAQGTSVPFTFGQGTKLEIK"
4,0.2,"dBBDu183H V100iT / dBBDu072L (antibody, name in Kabat numbering, V domains shown, as m1, one VH change) VH: QVQLVESGGGLVQPGRSLRLSCAASGFTFSNAWMHWVRQAPGKGLEWVAQIKDKGNAYAAYYAPSVKGRFTISRDDSKNSIYLQMNSLKTEDTAVYYCHYVHYASASTVLPAFGTDAWGQGTTVTVSS VL: DIVMTQSPLSLPVTPGEPASISCQASQELVHMNRNTYLHWYQQKPGQAPRLLIYKVSNRFPGVPDRFSGSGSGTDFTLKISRVEAEDVGVYYCAQGTSVPFTFGQGTKLEIK"
5,0.6,"dBBDu183H V100cW / dBBDu072L (antibody, name in Kabat numbering, V domains shown, as m1, one VH change) VH: QVQLVESGGGLVQPGRSLRLSCAASGFTFSNAWMHWVRQAPGKGLEWVAQIKDKGNAYAAYYAPSVKGRFTISRDDSKNSIYLQMNSLKTEDTAVYYCHYVHYASASTWLPAFGVDAWGQGTTVTVSS VL: DIVMTQSPLSLPVTPGEPASISCQASQELVHMNRNTYLHWYQQKPGQAPRLLIYKVSNRFPGVPDRFSGSGSGTDFTLKISRVEAEDVGVYYCAQGTSVPFTFGQGTKLEIK"
